What follows are sequences tested on Escherichia coli TOP10 (assay: shrunken log2 fold change of peptide-encoding DNA abundance (4.5 h post-induction vs induction); higher = less antimicrobial activity (less host growth inhibition)). Settings: time post-induction: 4.5 h; library: site-saturation at positions 5, 18, 19, 20.
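Further: peptides expressed intracellularly from a pBAD plasmid library in pooled LB shake-flask culture, induced with 0.3% L-arabinose, DNA abundance read by NGS, three biological replicates, DESeq2 with apeglm shrinkage.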

Sequence	shrunken log2 fold change
RRIRMRPPRLPRPRPRPDWFPRP	0.235
RRIRSRPPRLPRPRPRPKFHPRP	-0.441
RRIRMRPPRLPRPRPRPCPCPRP	0.495
RRIRFRPPRLPRPRPRPPMCPRP	-0.0102
RRIRMRPPRLPRPRPRPWVIPRP	0.0191
RRIRPRPPRLPRPRPRPEYHPRP	-0.0649
RRIRPRPPRLPRPRPRPGEFPRP	0.318
RRIRVRPPRLPRPRPRPINWPRP	-0.147
RRIRVRPPRLPRPRPRPRDTPRP	-0.0483
RRIRYRPPRLPRPRPRPHDKPRP	-0.661
RRIRERPPRLPRPRPRPEFEPRP	-0.159
RRIRLRPPRLPRPRPRPQEHPRP	-0.167
RRIRFRPPRLPRPRPRPSLTPRP	-0.413
RRIRGRPPRLPRPRPRPPFSPRP	0.444
RRIRERPPRLPRPRPRPQTAPRP	-0.0922
RRIRARPPRLPRPRPRPTNDPRP	0.297
RRIRHRPPRLPRPRPRPNETPRP	0.00408
RRIRWRPPRLPRPRPRPKTMPRP	0.35
RRIRARPPRLPRPRPRPVAYPRP	0.0127
RRIRTRPPRLPRPRPRPDVIPRP	-0.0157
RRIRHRPPRLPRPRPRPWRDPRP	-0.154
RRIRWRPPRLPRPRPRPQLHPRP	0.123

Sequence	shrunken log2 fold change
RRIRNRPPRLPRPRPRPEQEPRP	0.0175
RRIRERPPRLPRPRPRPHDPPRP	-0.0577
RRIRQRPPRLPRPRPRPMDNPRP	-0.367
RRIRMRPPRLPRPRPRPQTFPRP	-0.0186
RRIRLRPPRLPRPRPRPTFLPRP	-0.153
RRIRTRPPRLPRPRPRPYTQPRP	-0.434
RRIRTRPPRLPRPRPRPCIEPRP	-0.183
RRIRTRPPRLPRPRPRPTQYPRP	-0.207
RRIRKRPPRLPRPRPRPCTPPRP	0.192
RRIRVRPPRLPRPRPRPVPRPRP	-0.00795
RRIRYRPPRLPRPRPRPGEGPRP	0.00405
RRIRHRPPRLPRPRPRPGCCPRP	0.0396
RRIRVRPPRLPRPRPRPMPIPRP	0.055
RRIRARPPRLPRPRPRPSWWPRP	0.695
RRIRLRPPRLPRPRPRPQKGPRP	-0.183
RRIRARPPRLPRPRPRPQYFPRP	-0.153
RRIRKRPPRLPRPRPRPPVPPRP	0.794
RRIRNRPPRLPRPRPRPGHRPRP	0.00909
RRIRLRPPRLPRPRPRPVNPPRP	0.0818
RRIRSRPPRLPRPRPRPMMIPRP	-0.196
RRIRDRPPRLPRPRPRPFNAPRP	-0.0419
RRIRWRPPRLPRPRPRPPMKPRP	0.234

Sequence	shrunken log2 fold change
RRIRCRPPRLPRPRPRPSHAPRP	-0.375
RRIRVRPPRLPRPRPRPQRKPRP	0.0451
RRIRDRPPRLPRPRPRPPKKPRP	0.0806
RRIRKRPPRLPRPRPRPSQAPRP	-0.0142
RRIRARPPRLPRPRPRPCIRPRP	-0.365
RRIRMRPPRLPRPRPRPKSAPRP	0.389
RRIRTRPPRLPRPRPRPVGMPRP	-0.388
RRIRERPPRLPRPRPRPVEYPRP	-0.0437
RRIRRRPPRLPRPRPRPRIPPRP	0.209
RRIRDRPPRLPRPRPRPFQEPRP	-0.137
RRIRVRPPRLPRPRPRPKSNPRP	-0.206
RRIRWRPPRLPRPRPRPYICPRP	-0.329
RRIRNRPPRLPRPRPRPICDPRP	-0.119
RRIRTRPPRLPRPRPRPSRCPRP	0.061
RRIRKRPPRLPRPRPRPGRGPRP	0.593
RRIRDRPPRLPRPRPRPMLAPRP	0.607
RRIRFRPPRLPRPRPRPPRIPRP	0.232
RRIRYRPPRLPRPRPRPETGPRP	-0.0691
RRIRKRPPRLPRPRPRPFGAPRP	0.45
RRIRTRPPRLPRPRPRPRLAPRP	0.453
RRIRSRPPRLPRPRPRPKRGPRP	0.0665
RRIRDRPPRLPRPRPRPKRNPRP	0.136

Sequence	shrunken log2 fold change
RRIRLRPPRLPRPRPRPTYEPRP	-0.308
RRIRHRPPRLPRPRPRPTKQPRP	-0.0343
RRIRPRPPRLPRPRPRPADGPRP	0.297
RRIRTRPPRLPRPRPRPDMVPRP	-0.00822
RRIRQRPPRLPRPRPRPRDPPRP	0.604
RRIRTRPPRLPRPRPRPCTSPRP	-0.137
RRIRTRPPRLPRPRPRPFHCPRP	-0.179
RRIRARPPRLPRPRPRPHGNPRP	-0.0231
RRIRCRPPRLPRPRPRPFESPRP	0.0262
RRIRSRPPRLPRPRPRPEAVPRP	-0.0338
RRIRSRPPRLPRPRPRPFNDPRP	-0.223
RRIRVRPPRLPRPRPRPLNKPRP	-0.323
RRIRCRPPRLPRPRPRPIMNPRP	-0.911
RRIRFRPPRLPRPRPRPVWTPRP	-0.488
RRIRARPPRLPRPRPRPHQSPRP	0.265
RRIRSRPPRLPRPRPRPNDSPRP	-0.342
RRIRFRPPRLPRPRPRPYNCPRP	-0.768
RRIRWRPPRLPRPRPRPEAIPRP	0.25
RRIRGRPPRLPRPRPRPVCGPRP	0.866
RRIRIRPPRLPRPRPRPYMLPRP	-0.916
RRIRDRPPRLPRPRPRPFYTPRP	-0.687
RRIRGRPPRLPRPRPRPLYRPRP	1.11

Sequence	shrunken log2 fold change
RRIRMRPPRLPRPRPRPHDEPRP	-0.0018
RRIRWRPPRLPRPRPRPGMKPRP	0.0023
RRIRNRPPRLPRPRPRPGMSPRP	-0.238
RRIRHRPPRLPRPRPRPIKWPRP	0.126
RRIRWRPPRLPRPRPRPEIYPRP	0.21
RRIRERPPRLPRPRPRPHPGPRP	0.033
RRIRQRPPRLPRPRPRPPMVPRP	-0.0885
RRIRLRPPRLPRPRPRPANQPRP	0.137
RRIRSRPPRLPRPRPRPVAKPRP	0.116
RRIRNRPPRLPRPRPRPKFWPRP	0.177
RRIRPRPPRLPRPRPRPRVSPRP	0.00758
RRIRCRPPRLPRPRPRPDHYPRP	-0.211
RRIRVRPPRLPRPRPRPRIPPRP	0.183
RRIRRRPPRLPRPRPRPYQTPRP	-0.071
RRIRSRPPRLPRPRPRPYWDPRP	-0.321
RRIRIRPPRLPRPRPRPESHPRP	-0.0755
RRIRRRPPRLPRPRPRPAHCPRP	0.804
RRIRKRPPRLPRPRPRPYWKPRP	0.0282
RRIRLRPPRLPRPRPRPAGIPRP	-0.043
RRIRTRPPRLPRPRPRPCHCPRP	-1.43
RRIRRRPPRLPRPRPRPSDRPRP	-0.153

Reference: the supplement of paper PMC9112550, “Optimization of the antimicrobial peptide Bac7 by deep mutational scanning” (BMC Biology, 2022)
